Like-named read-outs stand apart in the source and are kept apart here.
Tests used:
[1] = system: anti-AMG 745 (whole molecule) binding antibodies; test: Clinical study: anti-AMG 745 binding antibody immunoassays; assay type: in vivo, human; conditions: subjects who received AMG 745 (1/31)
Procedure: For the 54 subjects who completed the study serum samples were analysed by surface-plasmon-resonance-based biosensor immunoassays for anti-AMG 745 (whole molecule) binding antibodies. Samples from 2 subjects gave positive results in 1 or more of the immunoassays: […]

[2] = system: men with prostate cancer receiving ADT; test: Clinical study: lower extremity strength (1-RM knee extension) and SPPB; assay type: in vivo, human; set-up: End of Study SPPB-Total Score, Mean / End of Study SPPB-Total Score, Median / Change from Baseline to End of Study SPPB-Total Score, Mean / Change from Baseline to End of Study SPPB-Total Score, Median / Follow-up SPPB-Total Score, Mean / Follow-up SPPB-Total Score, Median: scale not given here
Procedure: Lower extremity strength was assessed on the basis of maximum weight lifted for one repetition (1-RM) using a knee extension machine. This assessment was performed within 2 weeks prior to and/or up to Day 2, on Day 29, and at a 1 month follow-up visit.
Short Physical Performance Battery (SPPB) was conducted within 2 weeks prior to and/or up to Day 1, on Day 29, and at the 1 month follow-up visit. The SPPB included an assessment of standing balance, timed walk test, and five repetitions of chair stand.

[3] = system: men with prostate cancer receiving ADT; test: Clinical study: safety (adverse events, laboratory variables, ECG, vital signs); assay type: in vivo, human; conditions: for DEATHS ON STUDY: during study or within 30 days of last dose
Procedure: Adverse events and concomitant medications were recorded at all study visits.
For safety analyses, all subjects who received AMG 745 or placebo were included and placebo-treated subjects from all cohorts were combined to form a composite placebo group.

[4] = human, in vivo, sc
Procedure: (§1) This was a multicenter, randomized, double-blind, placebo-controlled, ascending-multiple-dose study in men with prostate cancer receiving ADT. The trial was designed to evaluate the safety, tolerability, PK, and pharmacodynamics of AMG 745.
(§2) Subcutaneous doses of 0.3 mg/kg, 1.0 mg/kg, and 3.0 mg/kg, were each administered once weekly for 4 weeks, and were evaluated in sequential cohorts. Eight subjects, randomized in a 3:1 allocation ratio to AMG 745 or placebo, were enrolled in the 0.3 mg/kg dose cohort and in the 1.0 mg/kg dose cohort. To evaluate safety, tolerability, PK and the effect of 4 weekly doses on lean body mass, a total of thirty-eight subjects were enrolled in the 3.0 mg/kg dose cohort, randomized in a 1:1 allocation ratio to AMG 745 or placebo.
(§3) The following procedures were performed pre-study and periodically during the study for all cohorts: physical examination, vital signs, electrocardiogram, hematology, chemistry, urinalysis, anti-AMG 745 antibody screen, and blood sample draws for PK. For the 3 mg/kg cohort DXA and lower extremity CT scans were conducted predose and on study day 29 (end of study) and at the one month follow-up visit. All DXA scans were performed on a Hologic or GE Lunar scanner. The same scanner was to be used for all visits for an individual subject. All DXA scans were sent to a central reading facility for review and analysis.
(§4) The pharmacokinetic analyses included all treated subjects for whom the pharmacokinetic parameters could be estimated. Pharmacokinetic parameters were estimated using noncompartmental methods. Summary statistics by dose cohort were generated for each pharmacokinetic parameter. Graphs of serum AMG 745 concentration-time profiles for individual subjects and the means for each dose were prepared.

[5] = Clinical study: pharmacokinetics of AMG 745 after weekly SC doses; conditions: for AUC0-τ / Cmax / CL/F (apparent serum clearance, Dose/AUC Week 4): mean; for AUC0-τ: 7-day dosing interval; for Cmax: serum; for tmax: median
Procedure: as §1, §2, §3, §4

[6] = 0.3 mg/kg SC 4-Week Dosing (N = 6)
[7] = 1.0 mg/kg SC 4-Week Dosing (N = 6)
[8] = 3.0 mg/kg SC 4-Week Dosing (N = 19)
[9] = Week 1 (Dose 1), 0.3 mg/kg SC once-weekly
[10] = Week 1 (Dose 1), 1 mg/kg SC once-weekly
[11] = Week 1 (Dose 1), 3 mg/kg SC once-weekly
[12] = Week 4 (Dose 4), 0.3 mg/kg SC once-weekly
[13] = Week 4 (Dose 4), 1 mg/kg SC once-weekly
[14] = Week 4 (Dose 4), 3 mg/kg SC once-weekly

For “AMG 745: anti-myostatin peptibody: human IgG1 Fc fused at C-terminus via GGGGGAQ linker to peptide SEQ ID NO:311; chain SEQ ID NO:635”, the “incidence of anti-AMG 745 (whole molecule) binding antibodies” value [1] was 3%, the “Change from Baseline to End of Study SPPB-Total Score, Mean” value (from here on “Change from Baseline to End … Mean”) [2, 6] was 0.67 and the “Change from Baseline to End of Study SPPB-Total Score, Median” value (shortened to “Change from Baseline to End … Median”) [2, 6] was 1.00. The “End of Study SPPB-Total Score, Mean” value [2, 6] was 11.00, the “End of Study SPPB-Total Score, Median” value [2, 6] was 11.00 and the “Follow-up SPPB-Total Score, Mean” value [2, 6] was 11.00. For the same substance, the “Follow-up SPPB-Total Score, Median” value [2, 6] was 11.00, the “Change from Baseline to End … Mean” value [2, 7] was 1.50 and the “Change from Baseline to End … Median” value [2, 7] was 1.50. The “End of Study SPPB-Total Score, Mean” value [2, 7] was 10.33, the “End of Study SPPB-Total Score, Median” value [2, 7] was 10.00 and the “Follow-up SPPB-Total Score, Mean” value [2, 7] was 9.50. For the same substance, the “Follow-up SPPB-Total Score, Median” value [2, 7] was 9.00, the “Change from Baseline to End … Mean” value [2, 8] was 0.37 and the “Change from Baseline to End … Median” value [2, 8] was 0.00. For the same substance, the “End of Study SPPB-Total Score, Mean” value [2, 8] was 10.53, the “End of Study SPPB-Total Score, Median” value [2, 8] was 11.00 and the “Follow-up SPPB-Total Score, Mean” value [2, 8] was 10.68. For the same substance, the “Follow-up SPPB-Total Score, Median” value [2, 8] was 11.00, the “Change from Baseline to End … Mean” value ([2]; All AMG 745 Subjects (N = 31)) was 0.65 and the “Change from Baseline to End … Median” value ([2]; All AMG 745 Subjects (N = 31)) was 1.00. The “End of Study SPPB-Total Score, Mean” value ([2]; All AMG 745 Subjects (N = 31)) was 10.58, the “End of Study SPPB-Total Score, Median” value ([2]; All AMG 745 Subjects (N = 31)) was 11.00 and the “Follow-up SPPB-Total Score, Mean” value ([2]; All AMG 745 Subjects (N = 31)) was 10.52. The “Follow-up SPPB-Total Score, Median” value ([2]; All AMG 745 Subjects (N = 31)) was 11.00, the “SPPB or 1-RM knee extension, changes from baseline” value ([2]; four doses, no statistical analyses) was “effects were not apparent” and the “ALL ADVERSE EVENTS” value [3, 6] was 5 (83) n (%). For the same substance, the “ALL TREATMENT-RELATED ADVERSE EVENTS” value [3, 6] was 1 (17) n (%), the “INVESTIGATIONAL PRODUCT DISCONTINUATIONS DUE TO ADVERSE EVENTS” value [3, 6] was 0 (0) n (%) and the “STUDY DISCONTINUATIONS DUE TO ADVERSE EVENTS” value [3, 6] was 0 (0) n (%). For the same substance, the “Serious adverse events (all adverse events)” value [3, 6] was 0 (0) n (%), the “Serious adverse events (treatment-related)” value [3, 6] was 0 (0) n (%) and the “DEATHS ON STUDY” value [3, 6] was 0 (0) n (%). The “ALL ADVERSE EVENTS” value [3, 7] was 5 (83) n (%), the “ALL TREATMENT-RELATED ADVERSE EVENTS” value [3, 7] was 3 (50) n (%) and the “INVESTIGATIONAL PRODUCT DISCONTINUATIONS DUE TO ADVERSE EVENTS” value [3, 7] was 0 (0) n (%). For the same substance, the “STUDY DISCONTINUATIONS DUE TO ADVERSE EVENTS” value [3, 7] was 0 (0) n (%), the “Serious adverse events (all adverse events)” value [3, 7] was 0 (0) n (%) and the “Serious adverse events (treatment-related)” value [3, 7] was 0 (0) n (%). For the same substance, the “DEATHS ON STUDY” value [3, 7] was 0 (0) n (%), the “ALL ADVERSE EVENTS” value [3, 8] was 15 (79) n (%) and the “ALL TREATMENT-RELATED ADVERSE EVENTS” value [3, 8] was 3 (16) n (%). For the same substance, the “INVESTIGATIONAL PRODUCT DISCONTINUATIONS DUE TO ADVERSE EVENTS” value [3, 8] was 1 (5) n (%), the “STUDY DISCONTINUATIONS DUE TO ADVERSE EVENTS” value [3, 8] was 0 (0) n (%) and the “Serious adverse events (all adverse events)” value [3, 8] was 1 (5) n (%). For the same substance, the “Serious adverse events (treatment-related)” value [3, 8] was 0 (0) n (%), the “DEATHS ON STUDY” value [3, 8] was 0 (0) n (%) and the “relationship between subject incidence of adverse events and dose” value ([3]; 0.3 to 3 mg/kg) was “No relationship was apparent”. The “highest alanine aminotransferase [ALT]” value ([3]; 1 subject, 0.3 mg/kg) was 1.7 times the upper limit of normal (ULN), the “highest alkaline phosphatase [AP]” value ([3]; 1 subject, 0.3 mg/kg) was 1.5 times the upper limit of normal (ULN) and the “highest aspartate aminotransferase [AST]” value ([3]; 1 subject, 0.3 mg/kg) was 2.2 times the upper limit of normal (ULN). The “injection site bruising, subject incidence” value ([3]; 2/31) was 6%, the “subjects discontinued because of adverse events (erythema of the abdomen)” value ([3]; 3-mg/kg dose cohort, after the second dose) was 1 subject and the “serious adverse events (syncope), number” value ([3]; 3-mg/kg dose cohort, considered unrelated to treatment) was 1. For the same substance, the “contusion, subject incidence” value ([3]; 3/31) was 10%, the “diarrhea, subject incidence” value ([3]; 4/31) was 13% and the “fatigue, subject incidence” value ([3]; 4/31) was 13%. The tolerability ([3]; 4 weekly SC doses, as high as 3.0 mg/kg) was “generally well tolerated”, the “subjects with treatment-related adverse events” value ([3]; AMG 745 at any dose, 7 of 31 subjects) was 23% and the “subjects with adverse events” value ([3]; AMG 745 at any dose, 25 of 31 subjects) was 81%. For the same substance, the “ALL ADVERSE EVENTS” value ([3]; All AMG 745 Subjects (N = 31)) was 25 (81) n (%), the “ALL TREATMENT-RELATED ADVERSE EVENTS” value ([3]; All AMG 745 Subjects (N = 31)) was 7 (23) n (%) and the “INVESTIGATIONAL PRODUCT DISCONTINUATIONS DUE TO ADVERSE EVENTS” value ([3]; All AMG 745 Subjects (N = 31)) was 1 (3) n (%). For the same substance, the “STUDY DISCONTINUATIONS DUE TO ADVERSE EVENTS” value ([3]; All AMG 745 Subjects (N = 31)) was 0 (0) n (%), the “Serious adverse events (all adverse events)” value ([3]; All AMG 745 Subjects (N = 31)) was 1 (3) n (%) and the “Serious adverse events (treatment-related)” value ([3]; All AMG 745 Subjects (N = 31)) was 0 (0) n (%). The “DEATHS ON STUDY” value ([3]; All AMG 745 Subjects (N = 31)) was 0 (0) n (%), the “fasting plasma glucose, insulin, cholesterol, LDL, HDL, triglycerides vs placebo” value ([3]; human, in vivo) was “no apparent differences between treatment groups” and the “AR (accumulation ratio, AUC Week 4/AUC Week 1)” value ([4]; 0.3 mg/kg) was 2.55. The “AR (accumulation ratio, AUC Week 4/AUC Week 1)” value ([4]; 3 mg/kg) was 1.78, the “dose linearity of pharmacokinetics” value ([5]; 4 weekly SC doses, 0.3 to 3 mg/kg) was “dose-linear pharmacokinetics” and the AUC0-τ [5, 9] was 68.0 µg·h/mL. The Cmax [5, 9] was 0.502 µg/mL, the tmax ([5]; Week 1 (Dose 1), 0.3 mg/kg SC once-weekly, men with prostate cancer on ADT) was 72.4 h and the AUC0-τ [5, 10] was 321 µg·h/mL. It also gave a Cmax [5, 10] of 2.38 µg/mL, a tmax ([5]; Week 1 (Dose 1), 1 mg/kg SC once-weekly, men with prostate cancer on ADT) of 24.3 h and an AUC0-τ [5, 11] of 800 µg·h/mL. The Cmax [5, 11] was 6.38 µg/mL, the tmax ([5]; Week 1 (Dose 1), 3 mg/kg SC once-weekly, men with prostate cancer on ADT) was 71.8 h and the “CL/F (apparent serum clearance, Dose/AUC Week 4)” value [5, 12] was 1.96 mL/h/kg. For the same substance, the AUC0-τ [5, 12] was 175 µg·h/mL, the Cmax [5, 12] was 1.34 µg/mL and the tmax [5, 12] was 47.8 h. For the same substance, the “CL/F (apparent serum clearance, Dose/AUC Week 4)” value [5, 13] was 1.89 mL/h/kg, the AUC0-τ [5, 13] was 556 µg·h/mL and the Cmax [5, 13] was 4.17 µg/mL. The tmax [5, 13] was 24.0 h, the “CL/F (apparent serum clearance, Dose/AUC Week 4)” value [5, 14] was 2.29 mL/h/kg and the AUC0-τ [5, 14] was 1380 µg·h/mL. For the same substance, the Cmax [5, 14] was 10.8 µg/mL and the tmax [5, 14] was 24.0 h.
